Experiment [1] deals with T1, A168S (Homo sapiens, UniProt P18827).
T1 construct: clone of the alanine scanning library on HEK-293T cells; m17 with one substitution (alanine changed to serine); also called CD138 A168S
T1 sequence (CD138 (SDC1), full length, point mutant, looked up): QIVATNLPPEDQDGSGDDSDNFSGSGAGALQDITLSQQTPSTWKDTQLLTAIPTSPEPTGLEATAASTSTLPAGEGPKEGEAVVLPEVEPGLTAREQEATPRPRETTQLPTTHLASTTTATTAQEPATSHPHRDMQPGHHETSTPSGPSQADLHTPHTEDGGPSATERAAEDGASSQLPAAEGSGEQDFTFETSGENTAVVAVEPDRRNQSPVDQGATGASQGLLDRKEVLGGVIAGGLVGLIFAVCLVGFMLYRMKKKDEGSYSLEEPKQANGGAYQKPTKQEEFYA
Nature of the experiment: alanine scan: flow cytometry on HEK-293T cells expressing the mutant clone, 4320 Fab 0.50 ug/mL, normalised to WT CD138; Range %WT Binding 3; Normalized 4320 vs. BB4 57.9. The procedure:
(§1) Serial dilutions of each MAb were tested for immunoreactivity against cells expressing target protein (WT) or vector alone. Validation of target expression and optimization of detection and binding of anti-CD138 antibodies both by flow cytometry was completed in replicate (N=4). The optimal screening concentration for each MAb was determined based on the raw signal values and signal-to-background calculations specifically optimized for each test article. Optimized parameters included the use of 10% goat serum as blocking reagent. Primary antibody staining was for 60 minutes at 25° C. Wash buffer include phosphate buffered saline (divalent metal ion free), pH 7.4. […] Secondary antibodies were diluted 1:400 and incubated for 30 minutes at 25° C.
(§2) Library screens of very-high-affinity mAbs can fail to yield critical residues for antibody binding due to deficiencies of such an assay to detect and differentiate critical vs. less critical binding based on affinity and quantification of cell binding. One common approach in the literature is the use of monovalent antibody derived fragments such as Fab usually weakens binding sufficiently to allow identification of critical residues for binding. […] Binding of each test Ab to each mutant clone in the alanine scanning library was determined, in duplicate, and likewise evaluated by flow cytometry.
On the technique in general: A flow cytometer gives signals particle by particle.

Experiment [2] addresses T2, P167A (Homo sapiens, UniProt P18827).
T2 construct: clone of the alanine scanning library on HEK-293T cells; m17 with one substitution; also called CD138 P167A
T2 sequence (CD138 (SDC1), full length, point mutant, looked up): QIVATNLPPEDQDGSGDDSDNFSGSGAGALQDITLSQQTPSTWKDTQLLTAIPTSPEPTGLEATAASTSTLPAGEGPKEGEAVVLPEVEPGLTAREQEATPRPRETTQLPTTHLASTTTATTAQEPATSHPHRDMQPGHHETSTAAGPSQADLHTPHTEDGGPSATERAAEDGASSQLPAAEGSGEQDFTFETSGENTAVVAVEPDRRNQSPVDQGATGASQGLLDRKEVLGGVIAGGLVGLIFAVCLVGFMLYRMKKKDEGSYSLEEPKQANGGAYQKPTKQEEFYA
Nature of the experiment: alanine scan: flow cytometry on HEK-293T cells expressing the mutant clone, 4320 Fab 0.50 ug/mL, normalised to WT CD138; Range %WT Binding 46; Normalized 4320 vs. BB4 50.9. The procedure: as §1, §2

Experiment [3] concerns the target S151A (Homo sapiens) (UniProt P18827). Nature of the experiment: alanine scan: flow cytometry on HEK-293T cells expressing the mutant clone, 4320 Fab 0.50 ug/mL, normalised to WT CD138; Range %WT Binding 6; Normalized 4320 vs. BB4 24.5.

B1: Fab fragment of mAb 4320 (Fab, V domains shown)
VH: QVQLVQSGAEVKKPGASVKVSCKASGYSFSSYYMHWVRQAPGQGLEWMGTIHPSDSTTNYNQKFQGRVTMTVDTSTRTAYMELSSLRSEDTAVYYCANFVYWGQGTTVTVSS
VL: DIVMTQTPLSLSVTPGQPASISCKSSKSLLYKDGKTYLNWFLQKPGQSPQLLIYVVSTRASGVPDRFSGSGSGTDFTLKISRVEAEDVGVYYCQQLVEYPYTFGQGTKLEIKR
modifications: N-terminal Q1 observed as pyroglutamic acid (PCA) in the 138-2-5 complex
notes: In the crystal structures heavy chain residues 1-213 were traced; also called Fab4320
Take B1: the figures for the “Mean %WT Binding” value in experiment [1], in experiment [2] and in experiment [3] were 44.9 %WT, 56.4 %WT and 8.9 %WT, respectively.

These data come from patent publication US20230348614A1 (VISTERRA, published 2023).
